From PMC2690451 (The EMBO Journal, 2009)

T1: MBP-RacA (B. subtilis, UniProt P45870 1-184)
T1 sequence: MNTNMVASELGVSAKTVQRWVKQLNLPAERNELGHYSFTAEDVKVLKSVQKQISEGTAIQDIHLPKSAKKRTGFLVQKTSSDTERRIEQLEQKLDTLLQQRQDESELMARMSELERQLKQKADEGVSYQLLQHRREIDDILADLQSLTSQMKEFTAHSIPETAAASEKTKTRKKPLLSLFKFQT


Experiments:
SEC = target: the molecule itself; experiment: SEC
MBP-RacA = target: T1, MBP-RacA; experiment: density gradient flotation with liposomes

Binder | binding result (SEC) | binding result (MBP-RacA)
ΔN-DivIVA-MBP (domain or fragment) RKKTELEAKVNELDERIGHFANIEETLNKSILVAQEAAEDVKRNSQKEAKLIVREAEKNADRIINESLSKSRKIAMEIEELKKQSKVFRTRFQMLIEAQLDLLKNDDWDHLLEYEVDAVFEEKE | binds | 
ΔC-DivIVA-MBP (domain or fragment) MPLTPNDIHNKTFTKSFRGYDEDEVNEFLAQVRKDYEIVLRKKTELEAKVNELDERIGHFANIEETLNKSILVAQEAAEDVKRNSQKEAKLIVREAEKNADRIINESLSKSRKIAMEIEELKKQSKVFRTRFQMLIEAQLDLLK | binds | 
DivIVA (natural protein) MPLTPNDIHNKTFTKSFRGYDEDEVNEFLAQVRKDYEIVLRKKTELEAKVNELDERIGHFANIEETLNKSILVAQEAAEDVKRNSQKEAKLIVREAEKNADRIINESLSKSRKIAMEIEELKKQSKVFRTRFQMLIEAQLDLLKNDDWDHLLEYEVDAVFEEKE |  | binds
DivIVA-MBP (natural protein) MPLTPNDIHNKTFTKSFRGYDEDEVNEFLAQVRKDYEIVLRKKTELEAKVNELDERIGHFANIEETLNKSILVAQEAAEDVKRNSQKEAKLIVREAEKNADRIINESLSKSRKIAMEIEELKKQSKVFRTRFQMLIEAQLDLLKNDDWDHLLEYEVDAVFEEKE | binds | 
